{
  "source": "paper PMC5095173",
  "about": "“Disulfide-activated protein kinase G Iα regulates cardiac diastolic relaxation and fine-tunes the Frank–Starling response” (Nature Communications, 2016)",
  "molecules": {"B1": {"name": "PKGIα: recombinant PKGIα; Cys42 interchain disulfide bond (protein)", "chain": "MSELEEDFAKILMLKEERIKELEKRLSEKEEEIQELKRKLHKCQSVLPVPSTHIGPRTTRAQGISAEPQTYRSFHDLRQAFRKFTKSERSKDLIKEAILDNDFMKNLELSQIQEIVDCMYPVEYGKDSCIIKEGDVGSLVYVMEDGKVEVTKEGVKLCTMGPGKVFGELAILYNCTRTATVKTLVNVKLWAIDRQCFQTIMMRTGLIKHTEYMEFLKSVPTFQSLPEEILSKLADVLEETHYENGEYIIRQGARGDTFFIISKGTVNVTREDSPSEDPVFLRTLGKGDWFGEKALQGEDVRTANVIAAEAVTCLVIDRDSFKHLIGGLDDVSNKAYEDAEAKAKYEAEAAFFANLKLSDFNIIDTLGVGGFGRVELVQLKSEESKTFAMKILKKRHIVDTRQQEHIRSEKQIMQGAHSDFIVRLYRTFKDSKYLYMLMEACLGGELWTILRDRGSFEDSTTRFYTACVVEAFAYLHSKGIIYRDLKPENLILDHRGYAKLVDFGFAKKIGFGKKTWTFCGTPEYVAPEIILNKGHDISADYWSLGILMYELLTGSPPFSGPDPMKTYNIILRGIDMIEFPKKIAKNAANLIKKLCRDNPSERLGNLKNGVKDIQKHKWFEGFNWEGLRKGTLTPPIIPSVASPTDTSNFDSFPEDNDEPPPDDNSGWDIDF", "modifications": "intermolecular disulfide bond at Cys42 between the two subunits"}},
  "system": "PKGIα Cys42 interchain disulfide bond",
  "assay": "Dihydrolipoic acid/lipoic acid redox titration of recombinant PKGIα, disulfide dimerization by SDS-PAGE",
  "format": "physicochemical",
  "conditions": "in vitro, unpublished data",
  "text": "PhD thesis (2015) by Daniel Stubbert from this lab. We have amended the manuscript so that it now states that the PKGIα Cys42 disulfide bond is reversible and referenced the literature detailing the auranofin experiments described above:\n“Reactive oxygen species (ROS) promote formation of a reversible intermolecular disulfide bond between the two subunits of the PKGIα homodimer at Cys424,5.”\nFurthermore, in relation to reversibility, we also have unpublished data relating to the thermodynamic stability of the Cys42 interchain disulfide bond in vitro. We have performed a dihydrolipoic acid/lipoic acid redox titration with recombinant PKGIα and analysed the amount of disulfide dimerization by SDS-PAGE. The equilibrium redox potential was determined as approximately −280 mV; a value within the conﬁnes of the cellular redox potenƟal which ranges from ~−350 to –150 mV depending on e.g. the organelle an d stage of the cell cycle (Jones, D. P.\nJournal of Internal Medicine 268, 432-448 (2010); Jones, D. P. American Journal of Physiology - Cell […]\nconsistent with our findings from tissue and cells, and arguably ex actly what would be expected of a protein that is required to rapidly transduce an oxidant signal into a biological response.\n--What are the consequences of cys42 oxidation for cGMP activation of PKG? […]",
  "data": [
    {"molecule": "B1", "values": [
      {"measurement": "equilibrium redox potential of the Cys42 interchain disulfide bond", "value": "approximately −280 mV"}
    ]}
  ]
}
